Data on five substances can be found in publication PMC517709.

This series has as its system a1;alpha2 (Saccharomyces cerevisiae;Saccharomyces cerevisiae). Briefly: EMSA. To be noted: 1.4 uM a1 constant, 5-fold dilutions of alpha2 from 82 nM, protein dilution buffer 50 mM Tris pH 7.6, 1 mM EDTA, 500 mM NaCl, 10 mM 2-mercaptoethanol …. On the technique in general: In EMSA bound probe runs differently from free probe, usually more slowly.
Substance PRM8 ORF site showed a binding signal (fold decrease in affinity vs HO(10)) of 5.

In turn, CDC25 ORF site returned a binding signal (fold decrease in affinity vs HO(10)) of 5.

Regarding PRM9 ORF site, the binding signal (fold decrease in affinity vs HO(10)) stood at 10.

In turn, URB1 ORF site showed a binding signal (fold decrease in affinity vs HO(10)) of 25.

YKL162C ORF site showed a binding signal (fold decrease in affinity vs HO(10)) of 10.
